# Source: article PMC9715718 (Nature Communications, 2022)
# B1: PqsE (purified, affinity tag removed) (enzyme)
# chain: MLRLSAPGQLDDDLCLLGDVQVPVFLLRLGEASWALVEGGISRDAELVWADLCRWVADPSQVHYWLITHKHYDHCGLLPYLCPRLPNVQVLASERTCQAWKSESAVRVVERLNRQLLRAEQRLPEACAWDALPVRAVADGEWLELGPRHRLQVIEAHGHSDDHVVFYDVRRRRLFCGDALGEFDEAEGVWRPLVFDDMEAYLESLERLQRLPTLLQLIPGHGGLLRGRLAADGAESAYTECLRLCRRLLWRQSMGESLDELSEELHRAWGGQSVDFLPGELHLGSMRRMLEILSRQALPLD
# notes: not shown: His6, N-terminal, cleaved
# B2: RhlR purified in the presence of mBTL (natural protein)
# chain: MRNDGGFLLWWDGLRSEMQPIHDSQGVFAVLEKEVRRLGFDYYAYGVRHTIPFTRPKTEVHGTYPKAWLERYQMQNYGAVDPAILNGLRSSEMVVWSDSLFDQSRMLWNEARDWGLCVGATLPIRAPNNLLSVLSVARDQQNISSFEREEIRLRLRCMIELLTQKLTDLEHPMLMSNPVCLSHREREILQWTADGKSSGEIAIILSISESTVNFHHKNIQKKFDAPNKTLAAAYAAALGLI
# notes: RhlR, LuxR-type transcription factor of P. aeruginosa PA14/PAO1, 241 residues; also called RhlR:mBTL; non-tagged RhlR; source: E. coli BL21 CodonPlus (DE3), purified in the presence of mBTL
# B3: RhlR-ATTO488 (natural protein)
# chain: B2 chain
# modifications: conjugated with ATTO488-maleimid (site not stated)
# notes: RhlR, LuxR-type transcription factor of P. aeruginosa PA14/PAO1, 241 residues; m4 after labelling; 'non-tagged'; holds mBTL
# Legend:
# [1] = biological target: the molecule itself; assay: SEC-MALS; Superdex 200 Increase column in SEC buffer, 40-150 µg of protein applied
# PqsE-E187R = biological target: T1, PqsE-E187R (Pseudomonas aeruginosa, UniProt P20581, E187R); assay: MST; PqsE diluted 1:1 from 10 µM, RhlR-ATTO488 at 20 nM; 50 mM Tris pH 8.0, 300 mM NaCl, 5% glycerol, 50 µM mBTL, 0.05% Tween; 25 °C; conditions: both partners purified
# T1 construct: source: E. coli BL21 CodonPlus (DE3), purified; not shown: His6, N-terminal, cleaved
Binder,stoichiometry N [1],Kd (PqsE-E187R) [µM]
B1,2,–
B2,2,–
B3,–,13.8 ± 3.9
